Test results as given in the RNAGym collection of RNA variant scans (doi:10.7554/elife.80360).

B1: Hairpin Ribozyme (parent)
chain: GUCCUCUUUCACGUGCGCGUGAAAGAGAGAAGUGAACCAGAGAAACACACGUUGUGGUAUAUUACCUGGUA

Variants of: B1
Experiment: self-cleavage, relative activity (ratio to wild type); higher = more cleavage; co-transcriptional

Variant | self-cleavage
GUCCUCUUUCACGUUCGCGUGAAAGAGAGAAGUGAACCAGAGAAACACACGUUGUGGUAUAUUACCUGGAA [G15U U70A] | 0.96
GUCCUCUUUCACGUGAGCGUGAAAGAGAGAAGUGAACCAGAGAAACACACGUUGUGGUAUGUUACCUGGUA [C16A A61G] | 0.203
GUCCUCUUUCACGUGAGCGUGAAAGAGAGAAGUGAACCAGAGAAACACACGUUGUGGUAUCUUACCUGGUA [C16A A61C] | 0.359
GUCCUCUUUCACGUGAGCGUGAAAGAGAGAAGUGAAACAGAGAAACACACGUUGUGGUAUAUUACCUGGUA [C16A C37A] | 0.377
GUCCUCUUUCACGUGAGCGUGAAAGAGAGAAGUGAAGCAGAGAAACACACGUUGUGGUAUAUUACCUGGUA [C16A C37G] | 0.324
GUCCUCUUUCACGUUCGCGUGAAAGAGAGAAGUGAACCAGAGAAACACACGUUGUGGUAUAUUACCUGAUA [G15U G69A] | 0.448
GUCCUCUUUCACGUUCGCGUGAAAGAGAGAAGUGAACCAGAGAAACACACGUUGUGGUAUAUUACCUGCUA [G15U G69C] | 0.434
GUCCUCUUUCACGUGAGCGUGAAAGAGAGAAGUGAACCAGAGAAACACACGUUGUGGUAUAUUACUUGGUA [C16A C66U] | 0.416
GUCCUCUUUCACGUUCGCGUGAAAGAGAGAAGUGAACCAGAGAAACACAAGUUGUGGUAUAUUACCUGGUA [G15U C50A] | 0.274
GUCCUCUUUCACGUUCGCGUGAAAGAGAGAAGUGAACCAGAGAAACACACGUUGAGGUAUAUUACCUGGUA [G15U U55A] | 0.304
GUCCUCUUUCACGUUCGCGUGAAAGAGAGAAGUGAACCAGAGAAACAUACGUUGUGGUAUAUUACCUGGUA [G15U C48U] | 0.149
GUCCUCUUUCACGUUCGCGUGAAAGAGAGAAGUGAACCAGAGAAACAGACGUUGUGGUAUAUUACCUGGUA [G15U C48G] | 0.213
GUCCUCUUUCACGUUCGCGUGAAAGAGAGAAGUGAACCAGAGAAACAAACGUUGUGGUAUAUUACCUGGUA [G15U C48A] | 0.226
GUCCUCUUUCACGUGAGCGUGAAAGAGAGAAGUGAACCAGAGAAAUACACGUUGUGGUAUAUUACCUGGUA [C16A C46U] | 0.0901
GUCCUCUUUCACGUUCGCGUGAAAGAGAAAAGUGAACCAGAGAAACACACGUUGUGGUAUAUUACCUGGUA [G15U G29A] | 0.0502
GUCCUCUUUCACGUUCGCGCGAAAGAGAGAAGUGAACCAGAGAAACACACGUUGUGGUAUAUUACCUGGUA [G15U U20C] | 1
GUCCUCUUUCACGUGAGCGUGAAAGAGAGAAGUGAACCAGAGAAACACACGUUGUGGUGUAUUACCUGGUA [C16A A59G] | 0.085
GUCCUCUUUCACGUGAGCGUGAAAGAGAGAAGUGAACAAGAGAAACACACGUUGUGGUAUAUUACCUGGUA [C16A C38A] | 0.203
GUCCUCUUUCACGUUCGCGUGAAAAAGAGAAGUGAACCAGAGAAACACACGUUGUGGUAUAUUACCUGGUA [G15U G25A] | 0.703

Variant | self-cleavage
GUCCUCUUUCACGUGAGCGUGAAAGAGAGAAGUGAACCAGCGAAACACACGUUGUGGUAUAUUACCUGGUA [C16A A41C] | 1.18
GUCCUCUUUCACGUGAGCGUUAAAGAGAGAAGUGAACCAGAGAAACACACGUUGUGGUAUAUUACCUGGUA [C16A G21U] | 0.72
GUCCUCUUUCACGUUCGCGUGAAAGAGAGAAGUGAACCAUAGAAACACACGUUGUGGUAUAUUACCUGGUA [G15U G40U] | 0.206
GUCCUCUUUCACGUUCGCGUGAAAGAGAGAAGUGAACCAAAGAAACACACGUUGUGGUAUAUUACCUGGUA [G15U G40A] | 0.335
GUCCUCUUUCACGUUCGCGUGAAAGAGAGAAGUGAACCAGAGAAACACACGUUGUGGUAUAUAACCUGGUA [G15U U63A] | 0.164
GUCCUCUUUCACGUUCGCGUGAAAGAAAGAAGUGAACCAGAGAAACACACGUUGUGGUAUAUUACCUGGUA [G15U G27A] | 0.432
GUCCUCUUUCACGUUCGCGUGAAAGACAGAAGUGAACCAGAGAAACACACGUUGUGGUAUAUUACCUGGUA [G15U G27C] | 0.278
GUCCUCUUUCACGUGAGCGUGAGAGAGAGAAGUGAACCAGAGAAACACACGUUGUGGUAUAUUACCUGGUA [C16A A23G] | 0.783
GUCCUCUUUCACGUUCGCGUGAAAGAGAGAAGCGAACCAGAGAAACACACGUUGUGGUAUAUUACCUGGUA [G15U U33C] | 0.178
GUCCUCUUUCACGUGAGCGUGAAAGAGAGAAGUGAACCAGAGAAACACAGGUUGUGGUAUAUUACCUGGUA [C16A C50G] | 0.24
GUCCUCUUUCACGUGAGCGUGAAAGAGAGAAGUGAACCCGAGAAACACACGUUGUGGUAUAUUACCUGGUA [C16A A39C] | 0.484
GUCCUCUUUCACGUUCGCUUGAAAGAGAGAAGUGAACCAGAGAAACACACGUUGUGGUAUAUUACCUGGUA [G15U G19U] | 0.853
GUCCUCUUUCACGUGAGCGUGAAUGAGAGAAGUGAACCAGAGAAACACACGUUGUGGUAUAUUACCUGGUA [C16A A24U] | 0.632
GUCCUCUUUCACGUGAGCGUGCAAGAGAGAAGUGAACCAGAGAAACACACGUUGUGGUAUAUUACCUGGUA [C16A A22C] | 0.713
GUCCUCUUUCACGUUAGCGUGAAAGAGAGAAGUGAACCAGAGAAACACACGUUGUGGUAUAUUACCUGGUA [G15U C16A] | 1.11
GUCCUCUUUCACGUGAGGGUGAAAGAGAGAAGUGAACCAGAGAAACACACGUUGUGGUAUAUUACCUGGUA [C16A C18G] | 0.841
GUCCUCUUUCACGUGAGUGUGAAAGAGAGAAGUGAACCAGAGAAACACACGUUGUGGUAUAUUACCUGGUA [C16A C18U] | 0.98
GUCCUCUUUCACGUGAGCGUGAAAGAGAGGAGUGAACCAGAGAAACACACGUUGUGGUAUAUUACCUGGUA [C16A A30G] | 0.11
GUCCUCUUUCACGUGAUCGUGAAAGAGAGAAGUGAACCAGAGAAACACACGUUGUGGUAUAUUACCUGGUA [C16A G17U] | 0.944
